Measurements reported in article PMC9293207, “Impact of C‐terminal truncations in the Arabidopsis Rab escort protein (REP) on REP–Rab interaction and plant fertility” (The Plant Journal, 2021).
Values belong to the binder of their own block, whether it stands above or below them.

Tests used:
Details in all cases: both partners purified
[1] = biological target: T1, Rab escort protein (REP), recombinant REP‐His (Arabidopsis thaliana, UniProt Q8LLD4 1-563); assay: SEC; purified proteins diluted to 65 nM in 200 μl Tris 20 mM pH 7.5, 100 mM NaCl, 10 mM MgCl2, 1 mM DTT, 1.5 mM GDP, incubated 4 h at room temperature; Superdex 75 10/300 GL; fractions resolved by SDS‐PAGE
T1 construct: Rab escort protein (REP) of Arabidopsis thaliana, wild type; Plasmid was a gift (Dr. Michal Hala); HDX‐MS peptides are reported from region 1–14 to beyond amino acid 534, so the whole protein was probably present; also called WT REP; AtREP; source: E. coli BL21(DE3)pLysS, purified (Ni‐NTA agarose, HiTrapQ, Superdex 75)
T1 sequence (looked up): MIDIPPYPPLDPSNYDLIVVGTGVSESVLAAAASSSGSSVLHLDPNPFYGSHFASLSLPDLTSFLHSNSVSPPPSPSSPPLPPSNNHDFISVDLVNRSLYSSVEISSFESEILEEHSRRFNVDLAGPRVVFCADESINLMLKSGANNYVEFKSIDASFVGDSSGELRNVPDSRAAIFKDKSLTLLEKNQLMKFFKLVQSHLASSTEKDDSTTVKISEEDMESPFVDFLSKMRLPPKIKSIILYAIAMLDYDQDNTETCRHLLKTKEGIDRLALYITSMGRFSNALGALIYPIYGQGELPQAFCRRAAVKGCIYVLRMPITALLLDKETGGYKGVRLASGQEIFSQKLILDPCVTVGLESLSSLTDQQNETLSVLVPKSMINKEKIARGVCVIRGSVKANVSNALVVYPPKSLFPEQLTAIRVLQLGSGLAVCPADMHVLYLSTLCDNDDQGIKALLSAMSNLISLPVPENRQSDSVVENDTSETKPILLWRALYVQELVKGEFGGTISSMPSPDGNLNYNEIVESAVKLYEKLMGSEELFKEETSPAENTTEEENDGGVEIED

[2] = biological target: T1, Rab escort protein (REP), recombinant …; assay: HDX-MS; complexes of REP‐His with GST‐Rab from SEC against each protein alone (apo); 20 mM Tris‐DCl, 100 mM NaCl, 5 mM MgCl2, 1 mM GDP pH 7.5 in D2O; 10 sec, 1 min, 60 min; pepsin digestion; triplicate
[3] = biological target: T2, REPΔC‐His, truncated form of REP lacking 30 C‐terminal amino acids (Arabidopsis thaliana, UniProt Q8LLD4 1-533); assay: SEC; purified proteins diluted to 65 nM in 200 μl Tris 20 mM pH 7.5, 100 mM NaCl, 10 mM MgCl2, 1 mM DTT, 1.5 mM GDP, incubated 4 h at room temperature; Superdex 75 10/300 GL; fractions resolved by SDS‐PAGE
T2 construct: Rab escort protein (REP) of Arabidopsis thaliana lacking 30 C‐terminal amino acids; cloned from pGWB551‐REP with primers BP‐rep‐F and BP‐rep‐R into pET301/CT‐DEST; Gateway cloning (pDONR201, pET301/CT‐DEST) may add linker residues between REP and the His tag; also called truncated mutant; truncated REP version; source: E. coli BL21(DE3)pLysS, purified (Ni‐NTA agarose)
T2 sequence (looked up): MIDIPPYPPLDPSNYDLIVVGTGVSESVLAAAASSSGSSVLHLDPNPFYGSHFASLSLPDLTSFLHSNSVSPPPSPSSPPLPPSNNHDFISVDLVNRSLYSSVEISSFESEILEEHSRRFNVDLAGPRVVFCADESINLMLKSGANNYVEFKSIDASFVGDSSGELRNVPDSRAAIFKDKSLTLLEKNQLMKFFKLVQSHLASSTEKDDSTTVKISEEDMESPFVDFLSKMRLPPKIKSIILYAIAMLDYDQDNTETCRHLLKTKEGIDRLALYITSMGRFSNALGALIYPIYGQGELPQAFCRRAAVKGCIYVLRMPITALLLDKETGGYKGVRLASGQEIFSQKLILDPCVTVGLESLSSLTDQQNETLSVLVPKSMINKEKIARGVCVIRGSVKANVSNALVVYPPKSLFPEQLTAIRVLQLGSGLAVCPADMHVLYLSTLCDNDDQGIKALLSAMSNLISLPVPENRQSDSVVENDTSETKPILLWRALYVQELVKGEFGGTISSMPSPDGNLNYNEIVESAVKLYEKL

B2: GST‐Rab‐F2b (natural protein, Arabidopsis thaliana, UniProt Q9SN68 1-200, looked up)
chain: MAAAGNKSINAKLVLLGDVGAGKSSLVLRFVKDQFVEFQESTIGAAFFSQTLAVNDATVKFEIWDTAGQERYHSLAPMYYRGAAAAIIVFDVTNQASFERAKKWVQELQAQGNPNMVMALAGNKSDLLDARKVTAEDAQTYAQENGLFFMETSAKTATNVKEIFYEIARRLPRVQPTENPTGMVLPDRAMDRAVSSSCCA
notes: Rab‐F2b of Arabidopsis thaliana, cloned from Col‐0 leaf cDNA into pGEX4T1 cut with SmaI; unprenylated; Used in the presence of GDP; source: E. coli BL21(DE3)pLysS, purified (Glutathione‐Sepharose 4B, Superdex 75)
binding result [2]: binds

B4: GST‐Rab‐D1 (natural protein)
chain: not shown
notes: Rab‐D1 of Arabidopsis thaliana, cloned from Col‐0 leaf cDNA into pGEX4T1 cut with SmaI; unprenylated; Used in the presence of GDP; source: E. coli BL21(DE3)pLysS, purified (Glutathione‐Sepharose 4B, Superdex 75)
binding result [2]: binds
binding result [3]: binds

The remaining lines, values ahead:

binding result [1]: binds
B1: Rab‐E1d cleaved from its GST tag (natural protein)
chain: not shown
notes: Rab‐E1d of Arabidopsis thaliana, from GST‐Rab‐E1d (pGEX4T1, SmaI) after thrombin cleavage; A few vector‐derived residues probably remain at the end after thrombin cleavage; also called E1d no tag; untagged Rab‐E1d

binding result [1]: binds
binding result [3]: binds
B3: GST‐Rab‐E1d (natural protein)
chain: not shown
notes: Rab‐E1d of Arabidopsis thaliana, cloned from Col‐0 leaf cDNA into pGEX4T1 cut with SmaI; unprenylated; Used in the presence of GDP; source: E. coli BL21(DE3)pLysS, purified (Glutathione‐Sepharose 4B, Superdex 75)
